# Laboratory results from paper PMC3636998.
# What was measured:
# [1] = biological target: DGLα C-terminal domain, 761-1042 (UniProt Q9Y4D2); experiment: GST cosedimentation, CaMKII blot; settings: reference: non-phosphorylated CaMKIIα; sites T286
# [2] = biological target: GST fusion protein containing the C-terminal domain (CTD; residues 761-1042) of DGLα (UniProt Q9Y4D2); experiment: pull-down
# [3] = biological target: DGLα-V5 (full-length diacylglycerol lipase-α with a C-terminal V5-epitope tag) (UniProt Q9Y4D2); experiment: co-IP
# DGLα = DGLα (UniProt Q9Y4D2); experiment: anti-V5 co-immunoprecipitation, CaMKIIα blot; settings: reference: wild type CaMKIIα; sites T286
substance,measurement,setting,value
CaMKIIα (from UniProt P11798) Thr286-autophosphorylated CaMKIIα,other: bound CaMKII normalised to input aliquot,[1],gained; reference 0.11±0.03
purified Thr286-autophosphorylated CaMKIIα (from UniProt P11798 1-478) (enzyme),"CaMKII detected, normalized to the input",[2],0.37
WT CaMKIIα expressed in HEK293T cells (from UniProt P11798 1-478) (enzyme),"interaction with DGLα-V5, percent of WT",[3],100%
CaMKIIα (from UniProt P11798) T286A,percent of reference,DGLα,weaker; reference 100±5%
